{
  "source": "patent US20250197888A1",
  "about": "“NOVEL RECOMBINANT VECTOR AND USE THEREOF” (CELL & BRAIN CO., LTD., priority 2022, published 2025)",
  "origin": "cited, not measured here",
  "details": "A168H mutant; Balzarini et al., 2006",
  "data": [
    {"substance": "mutant HSV-TK: HSV thymidine kinase in which alanine at position 168 is substituted with histidine", "values": [
      {"measurement": "kinase activity relative to wild-type HSV-TK", "value": "about 4 times"}
    ]}
  ]
}
